The assay addresses cyclin/cdk2 complexes immunoprecipitated from HeLa cell extracts by cdk2 antisera (UniProt P24941). The assay can be described thus: cell-based or functional assay.

In turn, “GST-SDI-1 fusion protein (Schistosoma japonicum glutathione S-transferase amino acids 1-226, hinge Pro-Arg-Gly-Asp-Pro-Pro-Ala, SDI-1)” returned a half maximal inhibition of histone H1 kinase activity of 250 ng.
